This note sets out measurements from patent publication US11708423B2, “Chimeric engulfment receptor molecules and methods of use” (CERO THERAPEUTICS, INC., priority 2017, dated 2023).

In experiment [1] the test system is human primary B cells. Nature of the experiment: Gene expression profile (activation state) of CER21+ B cells. The format is cell-based. The following applies: CD40, CD40L, RANTES, CXCL10, CXCL11, LTα, TNFa. An excerpt:
To evaluate the activation state of CER21+ human primary B cells, gene expression profiles were examined from transduced B cell populations.

The subject of experiment [2] is human primary B cells. Put plainly: Proliferation of CER+ B cells co-cultured with paclitaxel treated Jurkat cells (CELLTRACE Violet dilution). The note with it: 5 days co-culture with paclitaxel (30 μM) treated Jurkat cells, no exogenous cytokines. The format is cell-based. As to the method:
The proliferation capacity of CER19+ and CER21+ human primary B cells was evaluated by co-culture with paclitaxel (30 μM) treated Jurkat lymphoma cells. CER-transduced B cells were labeled with CELLTRACE Violet and then co-cultured with paclitaxel treated Jurkat cells a target cell to effector cell ratio of 5:1 at 37° C. in the absence of exogenous cytokines for 5 days. Proliferation of CER19+ or CER21+B cells was assessed by flow cytometry by measuring dilution of CELLTRACE Violet (FIG. 23). Both CER19+ and CER21+ B cells increased approximately 10-fold after 5 days of co-culture in the absence of exogenous cytokines.

The subject of experiment [3] is dexamethasone pre-treated thymocytes. Nature of the experiment: Phagocytosis of thymocytes by CER Ba/F3 cells in presence or absence of Racl inhibitor. The note with it: Ba/F3 cells, 6 hour co-culture. The format is cell-based.
In experiment [4] the test system is staurosporine treated Jurkat cells. Put plainly: Phagocytosis and cytolysis of staurosporine treated Jurkat cells by CER21+ human primary B cells. The format is cell-based. As to the method:
One day prior to setting up the phagocytosis assay, Jurkat human B lymphocytes were cultured in complete RPMI 1640 growth media supplemented with 10% fetal bovine serum and 1% penicillin-streptomycin in a 6 well plate and treated with 1 mM staurosporine for three hours to induce apoptosis. Jurkat cells were washed twice in lx PBS to remove excess staurosporine and then stained with pHrodo Red (1 ng/μ.1 in PBS) for 15 minutes at room temperature. The Jurkat cells were supplemented with growth media, washed once to remove excess pHrodo Red, and plated on flat bottom 96 well plates at approximately 250,000 cells/well in RPMI 1640 complete media.
Transduced CER21+ human primary B cells were washed once with 1×PBS and stained with 1 μM CELLTRACE Violet in PBS for 10 minutes at 37° C. The CER21+ human primary B cells were supplemented with growth media, washed once with 1×PBS to remove excess CELLTRACE Violet, and plated onto 96 well plate at approximately 50,000 cells/well in RPMI 1640 complete media. Human CER21+primary B cells and Jurkat cells were co-cultured at a target cell to effector cell ratio of 5:1 at 37° C. for 3 hours. After incubation, the co-culture plate was then centrifuged, and the media replaced with PBS supplemented with 2% fetal bovine serum, pH 9. Phagocytic events were quantified by fluorescent microscopy (KEYENCE BZ-X710 fluorescence microscope, 20X objective). […] Solid arrows show engulfment activity. Dashed arrows show cytolytic activity.
Apoptotic cells were quantified from fluorescent images using automated software, and the number of apoptotic cells per high power view (FIG. 20A) and total fluorescence emission per high power view (FIG. 20B) were calculated using pH indicator dye.

Another experiment has as its system H1975 NSCLC cells. Nature of the experiment: Phagocytosis of Osimeritinib-treated H1975 cells by CER122 T cells. The format is cell-based. The note with it: 500 nM osimeritinib, 12 hours, CD4+ T cells. The protocol: H1975 NSCLC cells were treated with 500 nM Osimeritinib and then labeled with pH-rodo red, a pH sensing dye, to indicate localization to low-pH retaining endosomes. CD4+ T cells were transduced with a lentiviral vector comprising a CER122 nucleic acid and tEGFR nucleic acid (transduction marker). CER122 has a polypeptide sequence as set forth in SEQ ID NO:149 and comprises a Tim4 binding domain, Tim4 transmembrane domain, and an engulfment signaling domain comprising a primary engulfment signaling domain comprising a TLR2 signaling domain and a secondary engulfment signaling domain comprising a DAP12 signaling domain. CER122-transduced T cells labeled with CELLTRACE Violet were co-cultured with Osimeritinib-treated H1975 NSCLC cells. Fluorescent microscopy images (40X) were obtained 12 hours after co-culture of H1975 cells and CER-expressing T cells (FIG. 47, top left panel). […] Phagocytic events can be visualized as pHrodo red targets within CELLTRACE Violet labeled T cells. An enlargement of phagocytosis of pHrodo red labeled H1975 cells by CELLTRACE Violet labeled CER122-modified T cells is shown in the bottom panel of FIG. 47, with white arrows indicating phagocytic events.

Experiment [5] concerns H1975 EGFR+/Luciferase+ cells. Nature of the experiment: Adoptive transfer of CER T cells with EGFR inhibitor in H1975 xenograft. Format: in vivo, immunodeficient (NSG) mice. The following applies: Osimeritinib 1 mg/kg intraperitoneally + 10e6 CER-transduced human T cells, NSG mice. The protocol: The combination of CER therapy and EGFR inhibitor therapy was also evaluated in vivo. […] H1975 EGFR+/Luciferase^+ cells were engrafted into immunodeficient (NSG) mice 14 days prior to initiation of study and evaluated for engraftment by bioluminescent emission and tumor volume seven days later. The day prior to CER adoptive transfer (day-1), animals with established tumors were randomized into groups and treated with Osimeritinib 1 mg/kg (intraperitoneally) and then infused by tail vein with 10e6 CER-transduced human T cells. Animals received 10 μg of systemic IL-2 every 24 hours×3 days following cell infusion and then monitored for tumor progression and cell expansion and persistence thereafter. Tumor volume measurements were obtained post-adoptive transfer in untreated, Osimeritinib treated (1 mg/kg)+mock-transduced T cells (vector only), and Osimeritinib (1 mg/kg)+CER122-transduced T cells (n=5/group) (FIG. 79).

[6] abbreviates: human primary B cells, target:effector 5:1, 3 hours.

B1: CER21: Tim4 binding and transmembrane domains, TLR8 signaling domain; SEQ ID NO:88 (protein)
chain: MSKGLLLLWLVTELWWLYLTPAASEDTIIGFLGQPVTLPCHYLSWSQSRNSMCWGKGSCPNSKCNAELLRTDGTRIISRKSTKYTLLGKVQFGEVSLTISNTNRGDSGVYCCRIEVPGWFNDVKKNVRLELRRATTTKKPTTTTRPTTTPYVTTTTPELLPTTVMTTSVLPTTTPPQTLATTAFSTAVTTCPSTTPGSFSQETTKGSAFTTESETLPASNHSQRSMMTISTDIAVLRPTGSNPGILPSTSQLTTQKTTLTTSESLQKTTKSHQINSRQTILIIACCVGFVLMVLLFLAFLHHLFYWDVWFIYNVCLAKVKGYRSLSTSQTFYDAYISYDTKDASVTDWVINELRYHLEESRDKNVLLCLEERDWDPGLAIIDNLMQSINQSKKTVFVLTKKYAKSWNFKTAFYLALQRLMDENMDVIIFILLEPVLQHSQYLRLRQRICKSSILQWPDNPKAEGLFWQTLRNVVLTENDSRYNNMYVDSIKQY
modifications: CER21 chimeric engulfment receptor
B1: the “activation state (B cell mRNA levels compared to transduced control B cells)” value in the experiment with human primary B cells [1] was “promoted B cell activation molecules and survival factors”. Also, the “increase of CER+ B cells” value with human primary B cells [2] is on record as “approximately 10 fold”. The “pHrodo+ signal (phagocytosis of thymocytes), FACS” value in experiment [3] is “considerable pHrodo+ signal indicating phagocytosis of target thymocytes”. In experiment [4] (setting [6]), the “in vitro cytolysis of engulfed Jurkat cells” value is on record as “in vitro cytolysis of Jurkat cells” and the “in vitro phagocytosis of Jurkat cells” value is reported as “in vitro phagocytosis”. Also, the “killing of target cells (apoptotic cells and fluorescence per high power view)” value in experiment [4] (staurosporine treated (subtherapeutic dose) Jurkat cells) is “enhanced killing of target cells”.

B2: CER122: Tim4 binding and transmembrane domains, TLR2 primary and DAP12 secondary signaling domains; SEQ ID NO:149 (protein)
chain: MSKGLLLLWLVTELWWLYLTPAASEDTIIGFLGQPVTLPCHYLSWSQSRNSMCWGKGSCPNSKCNAELLRTDGTRIISRKSTKYTLLGKVQFGEVSLTISNTNRGDSGVYCCRIEVPGWFNDVKKNVRLELRRATTTKKPTTTTRPTTTPYVTTTTPELLPTTVMTTSVLPTTTPPQTLATTAFSTAVTTCPSTTPGSFSQETTKGSAFTTESETLPASNHSQRSMMTISTDIAVLRPTGSNPGILPSTSQLTTQKTTLTTSESLQKTTKSHQINSRQTILIIACCVGFVLMVLLFLAFLHRFHGLWYMKMMWAWLQAKRKPRKAPSRNICYDAFVSYSERDAYWVENLMVQELENFNPPFKLCLHKRDFIPGKWIIDNIIDSIEKSHKTVFVLSENFVKSEWCKYELDFSHFRLFDENNDAAILILLEPIEKKAIPQRFCKLRKIMNTKTYLEWPMDEAQREGFWVNLRAAIKSYFLGRLVPRGRGAAEAATRKQRITETESPYQELQGQRSDVYSDLNTQRPYYK
modifications: CER122 protein
Take B2: in the experiment with H1975 NSCLC cells, the “phagocytosis of H1975 cells” value is “phagocytic elimination of EGFR-mutated NSCLC cells”. Further, in experiment [5], the “anti-tumor response (tumor volume)” value is recorded as “enhanced anti-tumor responses in EGFR+NSCLC model in vivo”.
